Test: yeast display, Sf9 membrane polyspecificity reagent, FACS + sequencing; frameworks hold sequencing errors
Summary of the method: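 Nanobodies from a synthetic yeast display library (Saccharomyces cerevisiae BJ5465), induced 36–48 hours with galactose, were stained 1 hour at 4 °C with 10% biotinylated, detergent-solubilized Sf9 membrane reagent, enriched on streptavidin microbeads, then FACS-sorted. Anti-HA (expression) and streptavidin (reagent binding) fluorescence set low and high (top ~1%) gates. Polyreactivity labels come from the gate of origin. Genes were colony-PCR amplified, MiSeq 2 × 250 sequenced and filtered by CDR length.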

| Sequence | polyreactivity (PSR sort gate) |
| --- | --- |
| QVQLVESGGGLDQAGGSLRLTCAASGITFTQYAMGWYRQAPGKEREFVAGITFSGSSTYYADSVKGRFTISRDNAKNTVYLQMNSLKPEDTAVYYCAAESWYKYIYGYPRLFDYWGQATQVTVSS | low polyreactivity |
| QVQLVESGGGLVQAGGSLRLSCAASGSTFGPYVMGWYRQAPGKERELVATITSDDSTNYADSVKGRFTISRDNAKNTVYLQMNSLKPEDTAVYYCAVERDYWTKASYYWGQGTQVTVSS | low polyreactivity |
| QVQLVESGGGLVQAGGSLRLSCAASGSTFYPNAMGWYRQAPGKERELVAVITRSGGSTYYADSVKGRFTISRDNAKNTVYLQMNSLKPEDTAVYYCNAAYRTAYYGPRYDYWGQGTQVTVSS | high polyreactivity |
| QVQLVESGGGLVQAGGSLRLSCAASGRIFFRYVMGWYRPAPGKERELVATSTRSGGTTYYADSVKGRFTISRDNAKNTVYLQMNSLKPEDTAVYYCATDYTYHRVGPLYGFWGQGTQLTVSS | low polyreactivity |
| QVQLVESGGGLVQAGGSLLLSCAASGSIFFYAMGSYRQAPGKERELVADITYTGGSKYADSVKGRFTISRDNAKNTVYLQMNSLKPEDTAVYYCAKLDGGLFDYWGQGTQVTVSS | low polyreactivity |
| QDQHVESGGGLVQAGGSLRLSCAASGTIFCYYAMGWYRQAPGKERGLVASISWNGTSTYYADSVKGRFTISRDNSKNTVYLQMNCLNPEDTAVYYCNVRFNYRGTYDYWGQGTQVTVSS | low polyreactivity |
| QVQLVESGGGLVQAGGSLRLSCAPSGSTFGWYAMGWYRQAPGKESELFAAITGDSASTYYADSVKGRFTISRDNAKNTVYLQMNSLKQEDTAVYYCAATKFSDFAYEAVIGYGYWGQGTQVTVSS | low polyreactivity |
| QVQLVESGGGLVQAGGSLRLSCAASGYIVITYAMGRYRQAPGKERELVAAISRRGGRTYYADSVKGRFTISRDNAKNTVYLQMNSLKPEATAVYYCAADPATSVYGGLNYWGQGTQVTVSS | high polyreactivity |
| QVQLVESGGGLVQAGGSLRLSCAASGFTFAYYAMGWYRQAPGTERELVAAITYSGGSTYYADSVKGRFTISRDNAKNTVYLQMNSLKPEDTAVYYCNAYDRRYYYGRWYGEFDYWGQGTQVTVSS | low polyreactivity |
| QVQLVESGGGLVQAGGSLRLSCAASGNIFTYNTMGWYRQAPRKERELVAAISSGGSTYYADSVKGRFTISRDNAKNTVYLQMNSLKPEDTAVYYCNRRRWLWQTARGDYWGQGTQVTVSS | high polyreactivity |
| QVKRVESGGGLVQAGGSLRFSCADSGFTFGTYAMGWYRQAPGKEREFVAAISSNGGNTYYADSVKGRFTISRDNAKNTVYLEIHSLKPEDTAVSYCADRYPSGTRKWYCYWGQGTQVTVSS | high polyreactivity |
| QVQLVESGGGLVQAGGSLRLSCAASGSTFPHYTMGWYRQAPGKERELVAVISRSGRTYYADSVKGRFTISRDNAKNTVYLQMNSLKPEDTAVYYCAVLVGRLVWSYNHWGQGTQVTVSS | high polyreactivity |
| QVQLVESVGGLVQAGGSLRLSCAASGRIFYRYGMGWYRQAPGKERELVASITRGGSTYYADSVKGRFTISRDNAKNTVYLQMNSLKPEDTAVYYCATKSSAGYDYWGQGTQVTVSS | low polyreactivity |
| QVQLVESGGGLVQAGGSLRLSCAGSGRIFARNVMGWYGQAPGKVRELVAAISRSGGSTYYADSVKGRFTISRDNAKNTVYLQMNSLKPEDTAFYYCNAYYPIRSSPYGYYYWGQGTQVTVSS | high polyreactivity |
| QVQLVESGGGLVQAGGSLRLSCAASGSIFVQYAMGWYRQAPGKERELVAAISRGGGRTYYADSVKGRFTISRDNANNTVYLQMNSLKPEDTAVYYCAADSRPRDDYWGQGTQVTVSS | high polyreactivity |
| QVQLVESGGGLVQAGGSLRLSCAASGFTFSYYAMGWYRQAPGKERELVARISFSGTRTYYADSVKGRFTISRDNAKNTVYLQMNSLKPEDTAVYYCAARFGYVGITARYDYWGQGTQVTVSS | high polyreactivity |
| QVQLVESGGGLVQAGGSLRLSCAASGSIFPHYAMGWYRQSPGKETELVAAISRSGTSTYYADSVKGRFTISRDNAKNTVYLQMNSLKPEDTAVYYCAALSNNGVRYYYWGQGTQVTVSS | high polyreactivity |
| QVQHVESGGGLVQAGGSLRFSCAASGFIFIRNGMGWYRQAPGKERELVAAISARGGSTYYADSVKGRFTISRDNAKNTVYLQMNSLKPEDTALYYCAAYRPRKYDYWGQGTQVTVSS | high polyreactivity |
| QVPLVESVGGLVQAGGSLRLSCAASGRIFRANAMGWYRQAPGKEREFVAAINFSVSSTYAYSVKGRFTISRDNAKNTVYLQMNSLKPEDTAVYYCAATPTREGEYWGQGTQVTVSS | low polyreactivity |
| QVQLVESGGGLVQAGGSLRLSCAASGITFVRYAMGWYRQAPGKERELVAAISSGGSTHYADSVKGRFTISRDNAKNTVYLQMNSLKPEDTAVYYCAAQWTESSLYRFGYWGQGTQVTVSS | high polyreactivity |
| QVQLVESGGGLVQAGGSLRLSCAASGRIFGRNAMGWYRQAPGKERELVAAISSSGGTYYADSVKGRFTISRDNAKNTVYLQMNSLKPEDTAVYYCTARVRTQQRWVDYWGQGTQVTVSS | high polyreactivity |
| QVQLVESGGGLVQAGGSLRLSCPASGRIFGVYAMGWYRQAPGKESELVAAIRYRGGSTYYADSVKGRFTISRDNAKNSVYLQMNSLIPEDTAVYYCAAEVWGVGYYAPYGYWGQGTQVTVSS | high polyreactivity |

| Sequence | polyreactivity (PSR sort gate) |
| --- | --- |
| QVQLVESGGGLVQAGGSLRLSCAACGITWGYAMGWYRQAPGKERELVAVIRWSGTSTSYADSVKGRYTISRAKAKNTVYLQMNSLKPEDTAVYYCNAAWYDQYGDSDGDDYWGQGTQVTVSS | low polyreactivity |
| QVQLVESGGGLVQAGGSLRLTCSASGFIFRYYAKGWSRQAPGKERELVAAISTSGGSTYYADSVKGRFTISRDIAKNTVYLQMNSLKPEDTAVYYCAASTNTDRDFWGQGTQVTVSS | high polyreactivity |
| QVQLLESGGGLFQAGGSLRLSCAASGRIFDPYAMGWYRKAPWKETELVAAISWRGGSTNYADSVKGRFTISRDNAKNTVYLQMNSLKPEDTAVYYCAAVPVRYRYSYGYYYWGQGTQVTVSS | high polyreactivity |
| QVQLVESGGGLVQAGGSLRLSFAASGRIFLYNTMGWYRQAPGKERELVARISWSGGSTKYADSVKGRFTISRDNAKNTVYLQMNSLKPEDTAVYYCNAGYFTEYNSWGQGTQVTVSS | high polyreactivity |
| QVQLVESGGGLVQAGGSLRLSCPASGTLTVNTMGWYRQAPGKERELVAAISTGDTTTYADSVKGRFTISRDNAKNTVYVQMNSLKPEDTAVYYCNVDIGVYAYESDYWGQGSQVTVSS | low polyreactivity |
| QVQLVESGGGLVQAGGSLRLSCAASGIIFTYAIGWYRQAPGKERELVAAIDWRGGRTYYADSVKGRFTISRDNAKNTVYLHMNSLKREDTAVYYCGARLGGGTYYWGQGTQVTVSS | high polyreactivity |
| QVQLVESGGGLVQAGGSLRLSCAASGFTFDDYAMGWYRQAPGKERELVATITNSDSSTYYADSVKGRFTISRDNAKNTVYLQMNSLKPEDTAVYYCNADGEGADSDYDYWGQGTQVTVSS | low polyreactivity |
| QVQLVESGGGLVQAGGSLRLSCAASGRIFKYYAMGWYRQAPGKERELVARISSGGGRTYYADSVKGRFTISRDNAKNTVYLQMNSLKPEDTAVYYCAADPPASYHTWYGYWGQGTQVTVSS | high polyreactivity |
| QVQLVESGGGLVQAGGSLRLSCAASGSIFGRNDMGWYRQAPGKERELVARITRGGSTNYADSVKGRFTISRDNAKNTVYLQMNSLKPEDTAVYYCAAGARQYRGVPDRYGYWGQGTQVTVSS | low polyreactivity |
| QVQLVESGGGLVQAGGSLRLSCAASGSILESNVMGWYRQAPGKERELVASISSSGDSTYADSVKGRFTISRDNAKNTVYLQMNSLKPEDTEVYYCAADRWYWTYALYYWGQGTQVTVSS | low polyreactivity |
| QVQLVESGGGLVQAGGSLRLSCAASGRIFFGYAMGWYRQAPGKERELVASISRGGSTNYADSVKGRFTISRDNAKNTVYLEMNSLKPEDTAVYYCAASRRRWSQQQGYGYYYWGQGTQVTVSS | high polyreactivity |
| QVQLVESGGGLVQAGGSLRLSCAASGSIFLVNAMGWYRQAPGKERELVAAINSGGSTYYADSVKGRFTISRDNAKNTVYLQMNSLKPEDTAVYYCAADFWLKVWQDTDYDYDYWGQGTQVTVSS | low polyreactivity |
| QVQLVESGGGLVQAGGSLRLICAASGIIFDGNAMGWYRQAPGKERELVASITSDSSTNYADSVKGRFTISRDNAKNTVYLQMNSLKPEDTAVYYCAADHWIAPRRDYWGQGTQVTVSS | low polyreactivity |
| QVQLVESGGGLVQAGGSLRLSCAASGRTFWSYAMGWYRQAPGKEREFVAAISRRGGITYYADSVKGRFTISRDNAKNTVYLQMNSLKPEDTAVYYCAKGAQSYYGGQVKYDYWGQGTQVTVSS | high polyreactivity |
| QVQLVESGGGLVQAGGSLRLSCAASGSTFTVNAMGWYRQAPGKDRELVADINWIGGATYYADSVKGRFTSSRDNAKNTVYLQMNSLKPEDTALYYCNADVWEYFTYSFTGFGWYDYWGQGTQVTVSS | high polyreactivity |
| QVQLVESGGGLVQAGGSLRLSCAASGLIFVQYVMGWYRQAPGKERELVAAITEDGNTYYADSVKGRFTISRDNAKNTVYLQMNSLKPEDTAVYYCNAVLRSYDFWTGYGYWGQGTQVTVSS | low polyreactivity |
| QVQLVESGGGLVQAGGSLRLSCAASGNTFAGNAMGWYRQATGKERELVAAISWSGTRTYYADSVKGRFTISRDNAKNTVYLQMNSLKPEDTAVYYCAKLSTNKEYYWGQGTQVTVSS | high polyreactivity |
| QVQLVESGGGLVQAGGSLRLSCAASGSTFGWYAMGWYRQAPGKERELVAAITSGGGTYYADSVKGRFTISRDNAKNTVYLQMNSLKPEVTAVYYCAADFVYSGWAPYDFWVTSYDYWGQGTQVTVSS | low polyreactivity |
| QVQIVESGGGLVQAGVSLRLSCAASGSTFETNTMGWYRKAPGKERELVAAITTGGRTYYADSLKGRFSISRDNAKNNVYLQMNSLKPEDTAVYYCAVAYWNRQSLFRMYYWGQGTQVTVSS | high polyreactivity |
| QVQLVESGGGLVQAGGSLRLSCAASGYTFYYNAMGWYIQAPGKERELVARISRSGGSTYADSVKGRFTISRDNAKNTVYLQMNSLKPEDTAVYYCNADAYGTPEFTSYAVRYDYWGQGTQVTVSS | low polyreactivity |
| QVQLVESGGGLDQAGGSLRLSCAASGGIFVGYAMGWYRQSPGKERELVASISSGGSTKYADSVKGRFTISRDNAKNTVYLQMNSLKPEDTAVYYCAATDTEGIDARYASVPTSYDYWGQGTQVTVSS | low polyreactivity |

— the nanobody polyreactivity screen of Harvey et al. (2022)
